{"source": "patent US11078245B2", "about": "“Colon and pancreas cancer peptidomimetics” (PRECISION BIOLOGICS, INC., priority 2010, dated 2021)", "molecules": {"B1": {"name": "NEO-101: Chimeric NEO-101 antibody, engineered in CHO-DG44 production cell clone 4B7; targets a variant of MUC5AC (protein)", "light": "QVVLTQSPVIMSASPGEKVTMTCSASSSISYMYWYQQKPGTSPKRWIYDTSKLASGVPARFSGSGSGTSYSLTISNMEAGDAATYYCHQRDSYPWTFGGGTNLEIK", "heavy": "QVQLKESGPDLVAPSQSLSITCTVSGFSLSKFGVNWVRQPPGKGLEWLGVIWGDGSTSYNSGLISRLSISKENSKSQVFLKLNSLQADDTATYYCVKPGGDYWGHGTSVTVSS"}}, "key": {"[1]": {"system": "colorectal cancer cell line LS174T", "experiment": "Immunofluorescence with FITC labeled NEO-101", "assay_type": "cell-based", "conditions": "2 μg/ml FITC labeled antibody", "procedure": "(§1) FACs data showing NEO-101 antibody binding to colon cancer and pancreatic cancer cell lines. Cells were washed and suspended in either 2 μg/ml NEO-101-FITC or isotype control antibody-FITC for 1 hour, washed and then subjected to FACS analysis. Experiments with all cell lines were repeated at least three times. […] DAPI was used to stain the nucleus. […] The staining pattern of these pancreatic and colorectal tumor cells was predominantly membrane-associated, consistent with the expression profile of MUC5AC."}, "[2]": {"system": "pancreatic cancer cell line AsPC-1", "experiment": "Immunofluorescence with FITC labeled NEO-101", "assay_type": "cell-based", "conditions": "2 μg/ml FITC labeled antibody", "procedure": "as §1"}, "CFPAC1 cells": {"system": "CFPAC1 cells", "experiment": "NEO-101-coupled Dynal beads rosette assay", "assay_type": "cell-based, human", "conditions": "antibody-coupled Dynal beads with TBS, no M13 clone", "procedure": "The M13 clones identified by the biopanning were also immunoassayed using magnetic beads. Aliquots of 5 μl M13 phage (10^11/10 μl) were mixed with 10 μl NEO-101-coupled Dynal® beads at RT for 20 min on a rotator. CFPAC1 cells (30 μl of 10^6 cells/ml) were added and incubated at 4° C. for 30 min. Rosetted cells were counted (>8 beads/cell)."}, "[3]": {"experiment": "Preliminary non-GLP toxicity study", "assay_type": "in vivo, BALB/c mice", "procedure": "A preliminary non-GLP toxicity study using a research-grade preparation of NEO-101 was also conducted. Normal BALB/c mice were Injected with a single IV dose of saline, or 3, 10, 30, or 100 mg/kg of NEO-101 (n=3 female mice per group). In-life parameters measured included body weights and clinical observations. Mice were humanely sacrificed 72 hours following the injection and specimens were collected for analysis. Post-mortem parameters included macroscopic examination, blood cell counts, serum chemistries, and histopathological evaluation of selected major organs and tissues. […] No other toxicities were detected in these studies potentially associated with NEO-101, including during histopathological examination of the major organ systems in these mice."}, "human tissues": {"system": "human tissues", "experiment": "Immunohistochemistry of human tissues, overall", "assay_type": "binding", "excerpt": "Thus, the NPC-1 epitope is expressed by colon and pancreatic tumor cells but not normal colon or pancreatic […] cells. Therefore, the NPC-1 epitope may be used as a tumor-specific marker or a therapeutic target for colon and pancreatic cancer. Further, peptidomimetics of the NPC-1 epitope (e.g., the polypeptide of SEQ ID NO: 1-24) as described herein may be used in the detection and treatment of cancer (e.g., colon, pancreas, breast, lung, ovarian, stomach, esophageal)."}, "[4]": {"conditions": "normal BALB/c mice", "protocol": "Mouse anti-NEO-101 antibody (MAHA) responses were also measured in this study (CB08-5110). The analysis employed an ELISA based assay to detect NEO-101-specific antibodies in mouse serum."}, "[5]": {"experiment": "Cytokine response in vivo, multiplex bead assay", "set-up": "species or system BALB/c mice", "conditions": "3.5 or 14 mg/kg iv; day 3", "procedure": "In a preliminary study designed to evaluate potential cytokine responses in vivo, normal BALB/c mice were injected intravenously with either 3.5 mg/kg or 14 mg/kg (5 mice per group) of research-grade NEO-101. Blood was collected on Study Day 3 (^72 hours post-injection) and Study Day 10. Serum was prepared (including from the pre-bleed of each mouse) and tested for the presence of mouse IL-2, IFN-γ, IL-4, and IL-5 in a multiplex bead assay using the SearchLight Array service offered by Aushon BioSystems, Inc."}}}
{"molecule": "B1", "values": [{"measurement": "binding by immunofluorescence", "setting": "[1]", "result": "binds"}, {"measurement": "binding by immunofluorescence", "setting": "[2]", "result": "binds"}, {"measurement": "Positive rosette cells (%)", "setting": "CFPAC1 cells", "result": 41, "unit": "%"}, {"measurement": "serum aspartate transaminase (AST)", "setting": "[3]; 2 out of 3 mice that received 100 mg/kg", "result": "mild, but statistically insignificant elevation"}, {"measurement": "body weight, blood cell counts, and histopathology of 7 major organs and tissues", "setting": "[3]; single IV dose 3, 10, 30 or 100 mg/kg, 72 hours", "result": "no significant changes"}, {"measurement": "cross-reactivity in other normal human tissues stained", "setting": "human tissues", "result": "no cross-reactivity"}, {"measurement": "immunogenicity (MAHA response)", "setting": "[4]", "result": "only mildly immunogenic"}, {"measurement": "serum level of IFN-γ", "setting": "[5]", "result": "no appreciable change"}, {"measurement": "serum level of IL-2", "setting": "[5]", "result": "small increase"}, {"measurement": "serum level of IL-4", "setting": "[5]", "result": "no appreciable change"}, {"measurement": "serum level of IL-5", "setting": "[5]", "result": "small increase"}]}
